# Assay results as given in patent US9845340B2, “Peptides that specifically bind HGF receptor (cMet) and uses thereof” (Dyax Corp., priority 2003, dated 2017).
# Assays:
# cMet-Fc fusion protein = cMet-Fc fusion protein (Homo sapiens, UniProt P08581); assay: Protein phage ELISA: peptide-displaying phage binding to soluble cMet-Fc versus TRAIL-Fc; details: phage isolate; cMet-Fc vs. TRAIL-Fc
# Protocol: Protein phage ELISAs using peptide-displaying phage isolates from the various selection campaigns were performed to determine specificity of the peptides for cMet versus an unrelated Fc-fusion protein (TRAIL-Fc). Briefly, 384-well plates were coated overnight at 4 C with 0.5 μg/mL of cMet-Fc fusion protein or TRAIL-Fc fusion protein (background). The plates were blocked for 2 hours 37C with 3% (w/v) BSA in PBS containing 0.05% (v/v) Tween-20 (PBST). The plates were washed with PBST and 100 μL of peptide-displaying phage were added to each well. The plates were incubated for 2 hours at room temperature and washed with PBST. cMet-binding peptide-displaying phage were detected using an HRP-conjugated anti-M13 antibody.
# [1] = target: T1, 3T3 cells that over-express human cMet (Homo sapiens, UniProt P08581); assay: Whole cell ELISA of peptide-displaying phage; type: cell-based; details: phage isolate; 3T3 cells expressing human cMet vs. non-expressing 3T3 cells
# T1 construct: expressed in transfected cells; host or cells: 3T3 cells
# Protocol: Whole cell ELISAs were performed using 3T3 cells that over-express human cMet. […] Briefly, 96-well plates were seeded with 10^5 cells per well. The plates were centrifuged for 5 minutes at 1600 rpm to pellet the cells. The resulting cell layer was fixed with 0.1% (v/v) glutaraldehyde for 12 minutes at 37 C. […] Peptide-displaying phage also were blocked in the above solution for 1 hour at 37 C. 100 μL of blocked phage was then added to each well and the plates were incubated for 1 hour at room temperature. The plates were washed with PBST. cMet-binding peptide-displaying phage were detected using an HRP-conjugated anti-M13 antibody.
# cMet-Fc fusion protein, sequence (P08581 25-307 limits assumed): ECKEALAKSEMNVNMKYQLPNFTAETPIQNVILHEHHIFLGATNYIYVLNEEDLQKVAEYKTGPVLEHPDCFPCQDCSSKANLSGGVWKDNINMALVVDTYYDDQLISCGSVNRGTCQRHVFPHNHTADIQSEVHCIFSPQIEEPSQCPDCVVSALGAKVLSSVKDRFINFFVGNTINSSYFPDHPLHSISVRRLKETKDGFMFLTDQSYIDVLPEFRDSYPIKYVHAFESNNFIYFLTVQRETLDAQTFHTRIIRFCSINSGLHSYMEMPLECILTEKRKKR
# cMet-Fc fusion protein, sequence (P08581 with tags, fused parts or gaps limits assumed): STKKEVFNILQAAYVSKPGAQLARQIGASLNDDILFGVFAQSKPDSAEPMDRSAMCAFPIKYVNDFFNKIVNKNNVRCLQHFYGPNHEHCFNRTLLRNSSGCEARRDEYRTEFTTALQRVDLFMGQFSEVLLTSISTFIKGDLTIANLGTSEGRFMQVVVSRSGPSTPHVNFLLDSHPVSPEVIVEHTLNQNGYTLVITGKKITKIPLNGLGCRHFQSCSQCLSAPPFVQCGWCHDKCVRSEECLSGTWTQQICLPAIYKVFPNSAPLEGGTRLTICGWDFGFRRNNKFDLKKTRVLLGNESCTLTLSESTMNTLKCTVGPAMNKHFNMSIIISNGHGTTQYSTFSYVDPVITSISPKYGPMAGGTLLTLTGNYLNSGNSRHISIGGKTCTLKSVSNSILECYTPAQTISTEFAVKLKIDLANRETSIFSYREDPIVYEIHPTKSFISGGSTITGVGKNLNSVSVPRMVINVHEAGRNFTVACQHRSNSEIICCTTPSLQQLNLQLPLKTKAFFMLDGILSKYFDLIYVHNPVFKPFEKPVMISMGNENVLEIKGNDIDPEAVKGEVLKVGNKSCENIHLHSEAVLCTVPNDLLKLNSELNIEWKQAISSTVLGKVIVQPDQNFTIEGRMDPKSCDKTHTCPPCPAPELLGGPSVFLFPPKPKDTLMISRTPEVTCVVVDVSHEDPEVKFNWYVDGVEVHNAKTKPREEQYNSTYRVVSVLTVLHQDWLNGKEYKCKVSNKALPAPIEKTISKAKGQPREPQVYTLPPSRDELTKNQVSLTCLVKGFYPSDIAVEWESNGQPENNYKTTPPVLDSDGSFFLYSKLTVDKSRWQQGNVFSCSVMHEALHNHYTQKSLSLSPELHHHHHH
# T1 sequence (P08581 25-1390): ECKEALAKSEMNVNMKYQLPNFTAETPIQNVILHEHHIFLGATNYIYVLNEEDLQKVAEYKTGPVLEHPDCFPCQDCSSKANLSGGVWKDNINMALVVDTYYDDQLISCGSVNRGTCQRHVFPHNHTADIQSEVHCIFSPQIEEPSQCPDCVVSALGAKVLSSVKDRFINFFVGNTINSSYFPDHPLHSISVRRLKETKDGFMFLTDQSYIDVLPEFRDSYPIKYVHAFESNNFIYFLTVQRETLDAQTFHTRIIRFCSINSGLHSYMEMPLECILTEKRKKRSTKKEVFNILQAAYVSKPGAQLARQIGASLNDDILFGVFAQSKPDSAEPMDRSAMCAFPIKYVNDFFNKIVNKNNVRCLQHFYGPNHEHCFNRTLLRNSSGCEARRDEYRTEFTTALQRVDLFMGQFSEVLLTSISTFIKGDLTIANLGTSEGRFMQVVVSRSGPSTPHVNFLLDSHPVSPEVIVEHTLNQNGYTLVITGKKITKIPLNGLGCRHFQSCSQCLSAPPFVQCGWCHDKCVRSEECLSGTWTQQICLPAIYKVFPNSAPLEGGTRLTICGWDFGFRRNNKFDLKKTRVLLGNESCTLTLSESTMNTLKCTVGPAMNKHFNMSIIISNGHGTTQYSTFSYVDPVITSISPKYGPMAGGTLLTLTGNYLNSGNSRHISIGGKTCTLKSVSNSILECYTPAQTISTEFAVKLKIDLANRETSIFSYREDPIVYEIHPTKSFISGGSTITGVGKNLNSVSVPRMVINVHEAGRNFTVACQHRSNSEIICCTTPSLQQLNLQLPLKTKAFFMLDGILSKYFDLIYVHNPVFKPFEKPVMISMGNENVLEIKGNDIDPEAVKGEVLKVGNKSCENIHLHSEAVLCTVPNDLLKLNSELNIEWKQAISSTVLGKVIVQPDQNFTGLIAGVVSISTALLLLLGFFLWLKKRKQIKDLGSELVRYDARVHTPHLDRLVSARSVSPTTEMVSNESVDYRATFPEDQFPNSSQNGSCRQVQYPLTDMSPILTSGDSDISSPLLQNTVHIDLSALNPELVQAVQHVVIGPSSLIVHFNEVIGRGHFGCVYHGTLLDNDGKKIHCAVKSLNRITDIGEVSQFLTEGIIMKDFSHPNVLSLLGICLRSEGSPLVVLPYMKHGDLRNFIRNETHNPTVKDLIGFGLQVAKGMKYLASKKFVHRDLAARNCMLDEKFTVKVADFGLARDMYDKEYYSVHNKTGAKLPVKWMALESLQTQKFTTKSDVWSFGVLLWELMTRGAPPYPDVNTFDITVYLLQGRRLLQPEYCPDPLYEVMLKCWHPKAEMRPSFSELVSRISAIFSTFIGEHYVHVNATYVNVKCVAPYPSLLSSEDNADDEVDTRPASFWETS
Molecule,Protein ELISA (cMet-Fc fusion protein),WC ELISA [1]
AQGIAWQLEWSYMPQSPPSFDR (Synthetically generated cMet-binding peptide sequence) [SEQ ID NO: 495],4.5 fold over background,1.17 fold over background
AGSWECTGPPSFHCQWYGT (Synthetically generated cMet-binding peptide sequence) [SEQ ID NO: 070],3.9 fold over background,1.37 fold over background
CC[C@H](C)[C@H](NC(=O)[C@H](CCC(N)=O)NC(=O)[C@H](CCCNC(=N)N)NC(=O)CNC(=O)[C@H](CO)NC(=O)[C@H](CC(=O)O)NC(=O)[C@H](CC(=O)O)NC(=O)[C@@H](NC(=O)[C@@H]1CCCN1C(=O)[C@H](Cc1ccccc1)NC(=O)[C@@H](NC(=O)[C@H](Cc1ccc(O)cc1)NC(=O)[C@@H]1CCCN1C(=O)[C@H](CO)NC(=O)[C@H](CCC(N)=O)NC(=O)[C@H](C)NC(C)=O)[C@@H](C)CC)[C@@H](C)CC)C(=O)N[C@@H](Cc1ccccc1)C(=O)N[C@H](C(=O)N[C@H](C(=O)N[C@@H](CCC(N)=O)C(=O)N[C@@H](Cc1c[nH]c2ccccc12)C(=O)NCC(=O)NCC(=O)NCC(=O)NCC(=O)N[C@@H](CCCCNC(=O)c1ccc2c(c1)C(=O)OC21c2ccc(O)cc2Oc2cc(O)ccc21)C(N)=O)[C@@H](C)CC)C(C)C [SEQ ID NO: 463],4.4 fold over background,1.23 fold over background
GSMLGCLFEHQNKYDCYVLAP (Synthetically generated cMet-binding peptide sequence) [SEQ ID NO: 379],3.2 fold over background,1.43 fold over background
AGSYWCSGPPTFMCRYEGT (Synthetically generated cMet-binding peptide sequence) [SEQ ID NO: 085],17.1 fold over background,1.27 fold over background
CC(=O)N[C@@H](C)C(=O)N[C@@H](CCC(N)=O)C(=O)N[C@@H](CC(=O)O)C(=O)N[C@@H](CC(C)C)C(=O)N[C@@H](CCCCN)C(=O)N1CCC[C@H]1C(=O)N[C@@H](Cc1c[nH]c2ccccc12)C(=O)N[C@H](C(=O)N[C@@H](C)C(=O)NCC(=O)N[C@@H](Cc1c[nH]c2ccccc12)C(=O)N[C@@H](CCC(=O)O)C(=O)N1CCC[C@H]1C(=O)N1CCC[C@H]1C(=O)N[C@@H](Cc1c[nH]c2ccccc12)C(=O)N[C@@H](CC(C)C)C(=O)N[C@@H](Cc1c[nH]c2ccccc12)C(=O)N[C@H](C(=O)N[C@@H](CC(=O)O)C(=O)N[C@@H](CCCNC(=N)N)C(=O)NCC(=O)N1CCC[C@H]1C(=O)NCC(=O)NCC(=O)NCC(=O)N[C@@H](CCCCNC(=O)c1ccc2c(c1)C(=O)OC21c2ccc(O)cc2Oc2cc(O)ccc21)C(N)=O)[C@@H](C)O)[C@@H](C)O [SEQ ID NO: 461],5.0 fold over background,1.30 fold over background
AGFVNCKGPPTFECILTGT (Synthetically generated cMet-binding peptide sequence) [SEQ ID NO: 057],12.3 fold over background,1.23 fold over background
AGAWNCEYPTFICEWQGA (Synthetically generated cMet-binding peptide sequence) [SEQ ID NO: 012],4.5 fold over background,1.27 fold over background
AGVLQCIGFEWFCDIWGT (Synthetically generated cMet-binding peptide sequence) [SEQ ID NO: 022],3.4 fold over background,1.40 fold over background
GDSYNCSWDSKTFEVTCLYADP (Synthetically generated cMet-binding peptide sequence) [SEQ ID NO: 393],8.4 fold over background,1.20 fold over background
AGKYMCEGFEWFCEMWGT (Synthetically generated cMet-binding peptide sequence) [SEQ ID NO: 037],4.1 fold over background,1.43 fold over background
GSLYRCLGEASPTPPCAYEAP (Synthetically generated cMet-binding peptide sequence) [SEQ ID NO: 380],4.0 fold over background,1.37 fold over background
AGLPKCSGPPWFSCYYGGT (Synthetically generated cMet-binding peptide sequence) [SEQ ID NO: 066],13.5 fold over background,1.30 fold over background
AGQYLCTQAALGCPEWGT (Synthetically generated cMet-binding peptide sequence) [SEQ ID NO: 029],4.3 fold over background,1.23 fold over background
AGNYFCAGSPSFSCYFMGT (Synthetically generated cMet-binding peptide sequence) [SEQ ID NO: 054],13.4 fold over background,1.33 fold over background
AQGGRYPFYDTDWFKWEMYVL (Synthetically generated cMet-binding peptide sequence) [SEQ ID NO: 496],3.8 fold over background,1.30 fold over background
GDPWWCFEKDSFIPFACWHHDP (Synthetically generated cMet-binding peptide sequence) [SEQ ID NO: 396],7.4 fold over background,1.30 fold over background

# Results, then the molecule that gave them:
Protein ELISA (cMet-Fc fusion protein),WC ELISA [1],Molecule
3.0 fold over background,1.40 fold over background,AQKTWFLEADLFQMFQEVTWQF (Synthetically generated cMet-binding peptide sequence) [SEQ ID NO: 490]
3.2 fold over background,1.27 fold over background,GSSTICPGTACVDHAP (Synthetically generated cMet-binding peptide sequence) [SEQ ID NO: 008]
3.4 fold over background,1.27 fold over background,GSMLMCELWWCRFLAP (Synthetically generated cMet-binding peptide sequence) [SEQ ID NO: 004]
14.8 fold over background,1.43 fold over background,AGQFKCAGPPSFACWMTGT (Synthetically generated cMet-binding peptide sequence) [SEQ ID NO: 050]
3.2 fold over background,1.23 fold over background,AQWGAVDNDWYDWEMEQIWMFE (Synthetically generated cMet-binding peptide sequence) [SEQ ID NO: 491]
5.2 fold over background,1.30 fold over background,AGSTDCRGHPTFECWGWGT (Synthetically generated cMet-binding peptide sequence) [SEQ ID NO: 086]
4.5 fold over background,1.33 fold over background,GSGDPCSPGPSINGHCSVMAP (Synthetically generated cMet-binding peptide sequence) [SEQ ID NO: 382]
4.8 fold over background,1.33 fold over background,AGDGWCMAWPEICEWLGT (Synthetically generated cMet-binding peptide sequence) [SEQ ID NO: 014]
